Here are results for one molecule from publication PMC7924758, “IAA3-mediated repression of PIF proteins coordinates light and auxin signaling in Arabidopsis” (PLoS Genetics, 2021).

The target of this assay is T1, His-PIF1 (Arabidopsis thaliana, UniProt Q8GZM7 1-478).
T1 construct: also called His-tagged PIF1; source: E. coli Transetta (DE3), purified (Ni-NTA agarose)
T1 sequence (looked up): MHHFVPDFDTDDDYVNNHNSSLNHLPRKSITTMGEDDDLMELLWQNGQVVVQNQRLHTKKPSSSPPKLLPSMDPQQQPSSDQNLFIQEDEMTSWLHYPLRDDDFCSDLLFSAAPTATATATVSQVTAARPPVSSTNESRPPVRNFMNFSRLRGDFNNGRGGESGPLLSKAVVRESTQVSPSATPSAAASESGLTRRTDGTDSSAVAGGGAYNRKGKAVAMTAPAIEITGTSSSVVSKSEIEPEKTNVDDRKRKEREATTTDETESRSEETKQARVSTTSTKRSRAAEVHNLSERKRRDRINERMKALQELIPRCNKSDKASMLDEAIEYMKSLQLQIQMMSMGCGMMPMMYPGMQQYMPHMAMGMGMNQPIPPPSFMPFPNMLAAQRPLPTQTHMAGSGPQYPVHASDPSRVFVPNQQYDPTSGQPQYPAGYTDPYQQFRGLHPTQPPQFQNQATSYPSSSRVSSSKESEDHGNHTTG
Nature of the assay: pull-down; MBP or MBP-IAA3 held on amylose resin, His-PIF1 or His-PIF4 added, 3 h at 4°C; 50 mM Tris-Cl pH 8.0, 150 mM NaCl, 10% glycerol, 0.5 mM EDTA, 0.1% Triton X-100, 5 mM β-mercaptoethanol; five washes; blots with anti-MBP and anti-His. The note with it: both partners purified.

B1: MBP-IAA3 (natural protein, Arabidopsis thaliana, UniProt Q38822 1-189, looked up)
chain: MDEFVNLKETELRLGLPGTDNVCEAKERVSCCNNNNKRVLSTDTEKEIESSSRKTETSPPRKAQIVGWPPVRSYRKNNIQSKKNESEHEGQGIYVKVSMDGAPYLRKIDLSCYKGYSELLKALEVMFKFSVGEYFERDGYKGSDFVPTYEDKDGDWMLIGDVPWEMFICTCKRLRIMKGSEAKGLGCGV
notes: IAA3 (SHY2), AUX/IAA transcriptional repressor, Arabidopsis; also called SHY2; source: E. coli Transetta (DE3), purified (amylose agarose)
Consider B1, for which the binding result is reported as “binds”.
